From PMC2807882, “Conservation of DNA-binding specificity and oligomerisation properties within the p53 family”

How the values were obtained:
Assay in all cases: fluorescence anisotropy, direct; 25 mM NaPi, 225 mM NaCl, 10% v/v glycerol, 5 mM DTT, 0.2 mg/mL BSA, 22°C; 20 nM labelled DNA; pH not stated for the binding assay
Conditions in all cases: protein: recombinant; tags: N-terminal 6xHis-lipoyl-TEV tag, cleaved; chain copies: 4; label: 5'-Alexa488
ΔNp63γ = target: T1, ΔNp63γ (Homo sapiens, UniProt Q9H3D4-6 1-393)
T1 sequence: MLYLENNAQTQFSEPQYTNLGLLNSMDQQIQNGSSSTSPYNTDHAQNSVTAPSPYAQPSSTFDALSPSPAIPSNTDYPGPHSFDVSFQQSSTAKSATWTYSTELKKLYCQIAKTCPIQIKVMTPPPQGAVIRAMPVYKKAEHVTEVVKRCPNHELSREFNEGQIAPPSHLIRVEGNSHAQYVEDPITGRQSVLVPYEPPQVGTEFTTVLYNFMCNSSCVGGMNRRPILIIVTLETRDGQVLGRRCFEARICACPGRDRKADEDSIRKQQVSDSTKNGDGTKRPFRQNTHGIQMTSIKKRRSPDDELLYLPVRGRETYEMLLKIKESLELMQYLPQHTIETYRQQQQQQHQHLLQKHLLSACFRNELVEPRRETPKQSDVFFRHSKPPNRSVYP

Drp53 = target: T2, Drp53 (Danio rerio, UniProt P79734 1-373)
T2 sequence: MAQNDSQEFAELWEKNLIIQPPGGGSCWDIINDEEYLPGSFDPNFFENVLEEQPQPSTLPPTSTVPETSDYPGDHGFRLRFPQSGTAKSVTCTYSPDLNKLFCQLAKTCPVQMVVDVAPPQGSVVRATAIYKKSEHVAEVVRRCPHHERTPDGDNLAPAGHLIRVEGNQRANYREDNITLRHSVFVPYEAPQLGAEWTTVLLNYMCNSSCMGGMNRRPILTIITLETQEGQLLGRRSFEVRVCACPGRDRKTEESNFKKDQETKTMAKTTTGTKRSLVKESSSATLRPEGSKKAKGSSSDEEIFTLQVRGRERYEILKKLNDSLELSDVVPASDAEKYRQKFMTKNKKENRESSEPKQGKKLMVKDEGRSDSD

ΔNp73β = target: T3, ΔNp73β (Homo sapiens, UniProt O15350-9 1-450)
T3 sequence: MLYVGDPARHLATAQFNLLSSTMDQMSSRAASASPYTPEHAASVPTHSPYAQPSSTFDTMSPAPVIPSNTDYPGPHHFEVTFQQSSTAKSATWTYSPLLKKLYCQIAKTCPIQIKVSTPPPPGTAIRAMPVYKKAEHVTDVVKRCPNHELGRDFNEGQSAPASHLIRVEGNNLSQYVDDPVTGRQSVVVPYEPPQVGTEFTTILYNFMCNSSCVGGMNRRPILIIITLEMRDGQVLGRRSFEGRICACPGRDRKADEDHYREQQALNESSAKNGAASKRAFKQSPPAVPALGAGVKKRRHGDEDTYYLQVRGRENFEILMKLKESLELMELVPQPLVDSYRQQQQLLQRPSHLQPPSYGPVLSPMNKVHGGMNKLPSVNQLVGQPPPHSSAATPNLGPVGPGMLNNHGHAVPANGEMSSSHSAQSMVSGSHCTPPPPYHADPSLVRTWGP

p73CT = target: T4, p73CT (Homo sapiens, UniProt O15350 104-383)
T4 sequence: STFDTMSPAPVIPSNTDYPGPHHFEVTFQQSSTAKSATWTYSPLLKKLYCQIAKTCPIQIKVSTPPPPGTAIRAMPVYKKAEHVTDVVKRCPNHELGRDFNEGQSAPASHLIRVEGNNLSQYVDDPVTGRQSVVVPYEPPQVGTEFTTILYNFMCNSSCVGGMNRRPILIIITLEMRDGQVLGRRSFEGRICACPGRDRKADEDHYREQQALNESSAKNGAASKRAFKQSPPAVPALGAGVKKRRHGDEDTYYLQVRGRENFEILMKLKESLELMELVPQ

ΔNp63α = target: T5, ΔNp63α (Homo sapiens, UniProt Q9H3D4-2 1-586)
T5 sequence: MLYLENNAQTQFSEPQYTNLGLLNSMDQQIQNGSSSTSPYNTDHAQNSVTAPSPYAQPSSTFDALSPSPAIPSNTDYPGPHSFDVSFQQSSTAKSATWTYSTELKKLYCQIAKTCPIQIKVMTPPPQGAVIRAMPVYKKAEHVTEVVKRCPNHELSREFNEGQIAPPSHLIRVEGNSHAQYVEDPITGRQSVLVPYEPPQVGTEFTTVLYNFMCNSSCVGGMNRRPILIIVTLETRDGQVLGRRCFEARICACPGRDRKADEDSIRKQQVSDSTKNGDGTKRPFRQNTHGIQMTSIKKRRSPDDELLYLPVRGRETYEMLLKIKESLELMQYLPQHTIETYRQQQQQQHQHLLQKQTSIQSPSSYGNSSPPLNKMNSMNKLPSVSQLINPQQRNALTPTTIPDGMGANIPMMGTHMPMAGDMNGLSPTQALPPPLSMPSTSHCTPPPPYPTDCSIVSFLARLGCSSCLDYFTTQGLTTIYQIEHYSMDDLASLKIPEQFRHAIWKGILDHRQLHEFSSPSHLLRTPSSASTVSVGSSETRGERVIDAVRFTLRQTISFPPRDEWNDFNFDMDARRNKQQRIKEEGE

B1: Ref_Alexa488 (dsDNA)
DNA 1: GGACATGTCCGGACATGTCC
DNA 2: GGACATGTCCGGACATGTCC
With B1 the Kd (ΔNp63γ) was -7.17 ± 0.02 log10(M), the Kd (Drp53) was -7.2 ± 0.03 log10(M) and the Kd (ΔNp73β) was -7.26 ± 0.02 log10(M). For the same binder, the Kd (p73CT) was -6.62 ± 0.04 log10(M) and the Kd (ΔNp63α) was -7.12 ± 0.01 log10(M).
